Experimental findings from paper PMC9745668 (ACS chemical biology, 2021) are described below.

Positions count from the first letter of the chain named. Names may count otherwise.

Data set [1] deals with T1, IPK from Candidatus methanomethylophilus alvus (CMA) (Methanomethylophilus alvi, UniProt M9SEQ1).
T1 sequence (M9SEQ1 1-259): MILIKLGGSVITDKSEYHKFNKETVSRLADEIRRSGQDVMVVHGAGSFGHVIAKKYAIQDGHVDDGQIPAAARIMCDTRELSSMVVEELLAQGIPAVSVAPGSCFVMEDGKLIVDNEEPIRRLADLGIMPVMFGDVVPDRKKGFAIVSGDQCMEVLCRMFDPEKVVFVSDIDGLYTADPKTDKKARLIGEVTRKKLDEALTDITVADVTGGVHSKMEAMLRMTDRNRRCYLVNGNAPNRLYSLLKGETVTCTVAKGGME
The data set can be described thus: X-ray crystal structure, […] Å. The conditions noted are these: alkyl-P site, monomer A, partial occupancy with IP. The format is binding.

Substrate in data set [2]: Cc1ccc(COP(=O)(O)O)cc1
As to the kind of experiment: PK-LDH coupled assay, A340. Conditions: 2 mM ATP, 5 mM MgCl2, 25 mM Tris pH 7.8, 37 °C. Type of data set: biochemical, Methanomethylophilus alvi.

Substrate in data set [3]: C=C(C)CCOP(=O)(O)O
As to the kind of experiment: PK-LDH coupled assay, A340. Type of data set: biochemical, Methanomethylophilus alvi. Conditions: 2 mM ATP, 5 mM MgCl2, 25 mM Tris pH 7.8, 37 °C.

Substrate in data set [4]: O=P(O)(O)OCc1ccccc1
As to the kind of experiment: PK-LDH coupled assay, A340. The format is biochemical, Methanomethylophilus alvi. The conditions noted are these: 2 mM ATP, 5 mM MgCl2, 25 mM Tris pH 7.8, 37 °C.

For the molecule `C=C(C)CCOP(=O)(O)OP(=O)(O)O` [IPP], in data set [1], the “X-ray crystal structure, 2.5 Å” value is “electron density for both pairs of reagents (IP/ATP and IPP/ADP) can be modeled”.

B1: IPK from Candidatus methanomethylophilus alvus (CMA) (Candidatus Methanomethylophilus alvi Mx1201; I74A) (protein)
chain: T1 sequence (M9SEQ1 1-259) with I74A
On to B1, for which, in data set [2], the Km came out at 80 ± 20 µM, the kcat was determined as 1.05 ± 0.07 s⁻¹ and the kcat/Km is 13000 M⁻¹ s⁻¹. Further, in data set [3], the Km was 220 ± 20 µM, the kcat is 42 ± 2 s⁻¹ and the kcat/Km was found to be 190000 M⁻¹ s⁻¹. In addition, in data set [4], the Km was 110 ± 30 µM, the kcat turned out to be 0.41 ± 0.02 s⁻¹ and the kcat/Km was 4000 M⁻¹ s⁻¹.

B2: IPK from Candidatus methanomethylophilus alvus (CMA) (Candidatus Methanomethylophilus alvi Mx1201; I146A) (protein)
chain: T1 sequence (M9SEQ1 1-259) with I146A
As to B2, in data set [3], the Km was 160 ± 20 µM, the kcat was determined as 68 ± 2 s⁻¹ and the kcat/Km stood at 430000 M⁻¹ s⁻¹.

B3: IPK from Candidatus methanomethylophilus alvus (CMA) (Candidatus Methanomethylophilus alvi Mx1201; V208A) (protein)
chain: T1 sequence (M9SEQ1 1-259) with V208A
Consider B3, for which, in data set [3], the Km was 75 ± 10 µM, the kcat worked out at 5.4 ± 0.1 s⁻¹ and the kcat/Km amounted to 72000 M⁻¹ s⁻¹.

B4: IPK from Candidatus methanomethylophilus alvus (CMA) (Candidatus Methanomethylophilus alvi Mx1201; T209A) (protein)
chain: T1 sequence (M9SEQ1 1-259) with T209A
With B4, in data set [3], the Michaelis-Menten constant (Km) amounted to 50 ± 20 µM, the kcat stood at 0.038 ± 0.002 s⁻¹ and the kcat/Km was found to be 800 M⁻¹ s⁻¹.

B5: IPK from Candidatus methanomethylophilus alvus (CMA) (Candidatus Methanomethylophilus alvi Mx1201; T209S) (protein)
chain: T1 sequence (M9SEQ1 1-259) with T209S
For the molecule B5, in data set [3], the Km came out at 37 ± 8 µM, the kcat worked out at 7.2 ± 0.3 s⁻¹ and the kcat/Km is 200000 M⁻¹ s⁻¹.

B6: IPK from Candidatus methanomethylophilus alvus (CMA) (Candidatus Methanomethylophilus alvi Mx1201; I74A/V208A) (protein)
chain: T1 sequence (M9SEQ1 1-259) with I74A, V208A
In the case of B6, in data set [3], the Michaelis constant (Km) turned out to be 750 ± 80 µM, the catalytic constant (kcat) was 4.9 ± 0.2 s⁻¹ and the specificity constant (kcat/Km) stood at 6500 M⁻¹ s⁻¹.
